Results as given in patent CN113912708A (INST MILITARY MEDICINE ACADEMY MILITARY SCIENCES PLA, dated 2022).

Experiments:
MERS-CoV RBD-Fc蛋白 = MERS-CoV RBD-Fc蛋白 (MERS-CoV (RBD); human (IgG Fc))
MERS-CoV假病毒 = MERS-CoV假病毒 (MERS-CoV); experiment: cell-based or functional assay

B1: 单域重链抗体Nano-Anti-MRBD (VHH)
VHH: QVQLVESGGGLVQPGGSLRLSCAASGFSFIDYAMSWARQAPGKGLEWVSSISPGYGTTYYTDSVKGRFTISRDNAKNMLYLQMNSLKPEDTATYYCAKGSDPFTPGIQRGQGTQVTVSS
MERS-CoV RBD-Fc蛋白
  EC50: 0.744 ng/mL
MERS-CoV假病毒
  对MERS-CoV假病毒进入细胞的抑制率 (IC50, luciferase RLU, Huh-7细胞): 10.7 ng/mL
